Test results reported in patent US7166733B2, “O,O'-Amidomalonate and N,O-Amidomalonate platinum complexes” (priority 2000, dated 2007).

Columns and labels:
[1] = test system: Bl6FI0 melanoma cells; assay: Clonogenic (colony-formation) assay; format: cell-based, murine; settings: 7 days incubation
Method: The relative cytotoxic activity of various O,O′—Pt chelate analogs were evaluated in vitro by means of a clonogenic (colony-formation) assay employing a tissue culture of Bl6FI0 melanoma cells. In this way, the activity of the analogs was compared to that of cisplatin and carboplatin. The effect of conversion to an N,O—Pt chelate was also evaluated. Briefly, cells were seeded into culture dishes and allowed to attach. The cultures were incubated for 7 days in medium containing the desired concentration of the test agent. After fixation, the number of cell clusters containing >50 cells was scored as a colony. Each concentration of test agent was assayed in triplicate. The mean number of colonies in each of the triplicate dishes was divided by the mean number of colonies in the control (no test agent) dishes to obtain a percent survival value for each concentration of test agent. The IC50 (concentration resulting in 50% inhibition of growth) of each of the agents was determined by linear regression analysis using the data values directly above and below the 50% survival point.

[2] = Platinum release from PBS; format: physicochemical; settings: 37° C.
Method: The percent of small platinum species released over time was measured by dissolving about 30 mg of the polymer-platinum conjugate in 15 mL of phosphate buffered saline (10 mM phosphate, 123 mM Cl^−) and incubating the solution at 37° C. in a water bath. At indicated times, 2.0 mL aliquots were transferred to a centrifugal filter with a 3 kDa nominal molecular weight cutoff (Centricon YM-3 from Millipore) and spun until >1.5 mL of filtrate had accumulated. The timed filtrates and the original solution were analyzed for platinum by ICP-OES. The percent of small Pt species released was determined using the formula: ((ppm Pt in filtrate)/(ppm Pt in stock solution))×100.

[3] = Dependence on pH of the isomer ratio of O,O′—Pt to N,O—Pt chelate (195Pt NMR of timed aliquots); format: physicochemical
Method: The percent of O,O′- and N,O-chelate in timed aliquots of reactions mixtures were determined by removing enough of the reaction mixture (4–15 mL depending on concentration) to give greater than 100 mg of Pt-chelate if only ^195Pt NMR spectroscopy was to be done or about 200 mg if % Pt, and % H2O were also to be determined. The aliquots were purified by ultrafiltration using a Centricon Plus-20 centrifugal filter with a 5 kDa Biomax membrane from Millipore. The charged device was spun at the recommended RCF until less than 1 mL remained. The filtrate was discarded, the retentate was diluted with 15–18 mL water and the sample was centrifuged. This was repeated once more, and the retentate was lyophilized to give the sample for analysis.
^195Pt NMR spectra were obtained from a filtered 0.70 mL solution in 93/7 H2O/D2O in a 5 mm tube. Enough sample (80–120 mg) was used to give a solution that was >50 mM in platinum. The probe was tuned for each sample. A pulse width of 90 degrees, an acquisition time of 10 msec, a spectral window of 100 kHz and no delay was used. The transmitter was tuned to approximately midway between the O,O′—Pt and N,O—Pt chelates shifts (−1896 ppm for cis-diammine Pt and at −2450 for DACH—Pt). Between 50,000 and 1 million transients were typically required to obtain a sufficient (>35:1) s/n ratio for the cis-diammine-Pt and DACH=Pt species, respectively. The resulting FID was increasingly left-shifted until a flat baseline was obtained, a 100 Hz line broadening was applied, and a Fourier fill of 2048 was applied before processing. Integral regions were set and the spectrum's baseline was subjected to a spline fit using VNMR software v6.1. The sample was referenced externally to a 100 mM sample of K2PtCl4 in 95/5H2O/D2O and 100 mM HCl at −1624 ppm. This was also used to determine the 90 degree pulse width and T1.
Four 50 mL Centrifuge tubes were each charged with 1.00 g of p(HPMA)-GFLG-Ama=Pt(NH3)2 (either 100% N,O-chelate) or a 92% O,O-chelate, 8% N,O-chelate mixture. These materials were dissolved in 27 mL Milli-Q water (approx a 4 wt % solution) and adjusted to the pH ranges desired using 1 M NaOH or 5% HClO4 as appropriate. The samples were then heated, with stirring, in a 38° C. water bath and maintained within their specified pH ranges. Timed aliquots were taken and frozen until a suitable time at which point the solutions were concentrated by centrifugal ultrafiltration (one spin down at 4800 rpm, 30° C.) and then transferred to an NMR tube. A small amount of D2O was added to each tube and the ^195Pt NMR spectra were recorded.

[4] = Single-dose IV maximum tolerated dose study; format: in vivo; settings: mice, highest dose with no drug-induced deaths
Text: For these studies, the MTD was defined as the highest dose evaluated in which no mouse deaths resulted from drug-induced toxicity.

[5] = Maximum tolerated dose on a qd×5 schedule in the B16 melanoma model; format: in vivo; settings: IP, C57BL/6 mice
Method: (§1) A study was conducted to compare the antitumor activity of poly(HPMA)-GFLG-Ama=Pt=DACH with that of carboplatin in the B16 melanoma model when each agent was administered as an IP injection daily for 5 days (qd×5). The poly(HPMA)-GFLG-Ama=Pt=DACH material was also given at days 15, 16, and 17. Both compounds were given at their respective maximum tolerated (equitoxic) doses on this regimen.
(§2) Female C57BL/6 mice weighing 18–20 g were implanted s.c. with 10^6 B16F10 tumor cells harvested from tissue culture. The size of the resulting tumor was followed individually throughout the study. Tumor mass (in mg) was calculated as (W^2×L)/2, where W is the shorter tumor dimension and L is the longer tumor dimension. Individual treatments were administered when the tumor was 75–100 mg in size. The injection volume was 0.04 mL per gram of body weight, and the drug was administered intraperitoneally. Tumor mass and body weight were measured daily. Data are expressed as the mean±SEM of the tumor mass and are plotted until 50% of the animals in each treatment group have died or been sacrificed due to excessive tumor mass, tumor ulceration, or morbidity. For comparison of the activity of different agents, each administered at its respective maximum tolerated doses (MTD), the MTD is defined as that dose which reproducibly induces no more than 10% (1 out of each 10 animals per group) early toxic deaths not attributable to tumor burden, and which results in a mean maximum body weight loss (i.e., the group mean of the nadir in each individual mouse weight, regardless of the day on which it occurred) of 10–15%, followed by recovery in lost weight.
(§3) A study was conducted to compare the antitumor activity of p(HPMA)-GFLG-C3-Sulf-Ama=Pt=DACH with that of carboplatin in the B16 melanoma model when each agent was administered as an IP injection daily for 5 days (qd×5). Both compounds were given at their respective maximum tolerated (equitoxic) doses on this regimen.
(§4) The methods utilized in this study were identical to those utilized for the p(HPMA)-GFLG-C3-Sulf-Ama=Pt=DACH study of Example 38.

[6] = test system: B16 melanoma; assay: Antitumor activity in the B16 melanoma model, multi-dose protocol; format: in vivo; settings: s.c. B16F10 in C57BL/6 mice
Method: as §1, §2, §3, §4

[7] = pH 5.0–5.5, 38° C., 100 mM ClO4^−, 1 h
[8] = pH 5.0–5.5, 38° C., 100 mM ClO4^−, 5 h
[9] = pH 5.0–5.5, 38° C., 100 mM ClO4^−, 8 h
[10] = pH 5.0–5.5, 38° C., 100 mM ClO4^−, 22 h
[11] = pH 5.0–5.5, 38° C., 100 mM Cl^−, 1 h
[12] = pH 5.0–5.5, 38° C., 100 mM Cl^−, 5 h
[13] = pH 5.0–5.5, 38° C., 100 mM Cl^−, 8 h
[14] = pH 5.0–5.5, 38° C., 100 mM Cl^−, 22 h
[15] = Example 38 study, IP qd×5 at MTD (polymer also days 15, 16, 17)
[16] = Example 39 study, IP qd×5 at MTD

Compound: poly(HPMA)-GFLG-Ama=Pt=DACH, N,O—Pt chelate [Example 6]
- IC50 [1]: < 4 µM

Compound: poly(HPMA)-GGGG-Ama=Pt=1R,2R-DACH N,O-Chelate [Example 21]
- Pt release in PBS ([2]; 3 hours): 0.972%
- Pt release in PBS ([2]; 24 hours): 3.173%

Compound: p(HPMA)-GFLG-Ama═Pt═(NH3)2, 90 kDa, O,O′—Pt
- IC50 [1]: 0.9 µM

Compound: poly(HPMA)-GFLG-Ama=Pt(NH3)2, N,O—Pt chelate, >351 kDa [Example 14]
- Pt release in PBS ([2]; 3 hours): 0.68%
- Pt release in PBS ([2]; 24 hours): 2.28%

Compound: poly(HPMA)-GFLG-C3-Sulf-Ama=Pt(NH3)2 N,O-chelate [Example 28]
- Pt release in PBS ([2]; 3 hours): 3.02%
- Pt release in PBS ([2]; 24 hours): 5.44%

Compound: poly(HPMA)-GFLG-Ama=Pt(NH3)2O,O′—Pt chelate [Example 3]
- IC50 [1]: 0.8 to 1.1 µM
- N,O— chelate ([3]; pH 3.0–3.5, 38° C., 1 h): 0%
- O,O— chelate ([3]; pH 3.0–3.5, 38° C., 1 h): 100%
- N,O— chelate ([3]; pH 3.0–3.5, 38° C., 5 h): 3%
- O,O— chelate ([3]; pH 3.0–3.5, 38° C., 5 h): 97%
- N,O— chelate ([3]; pH 3.0–3.5, 38° C., 20 h): 2%
- O,O— chelate ([3]; pH 3.0–3.5, 38° C., 20 h): 98%
- N,O— chelate ([3]; pH 4.0–4.5, 38° C., 1 h): 25%
- O,O— chelate ([3]; pH 4.0–4.5, 38° C., 1 h): 75%
- N,O— chelate ([3]; pH 4.0–4.5, 38° C., 5 h): 21%
- O,O— chelate ([3]; pH 4.0–4.5, 38° C., 5 h): 79%
- N,O— chelate ([3]; pH 4.0–4.5, 38° C., 20 h): 28%
- O,O— chelate ([3]; pH 4.0–4.5, 38° C., 20 h): 72%
- N,O— chelate [3, 7]: 31%
- O,O— chelate [3, 7]: 69%
- N,O— chelate [3, 8]: 56%
- O,O— chelate [3, 8]: 44%
- N,O— chelate [3, 9]: 67%
- O,O— chelate [3, 9]: 33%
- N,O— chelate [3, 10]: 60%
- O,O— chelate [3, 10]: 40%
- N,O— chelate [3, 11]: 31%
- O,O— chelate [3, 11]: 69%
- N,O— chelate [3, 12]: 54%
- O,O— chelate [3, 12]: 46%
- N,O— chelate [3, 13]: 68%
- O,O— chelate [3, 13]: 32%
- N,O— chelate [3, 14]: 68%
- O,O— chelate [3, 14]: 32%
- N,O— chelate ([3]; pH 5.0–5.5, 38° C., 1 h): 33%
- O,O— chelate ([3]; pH 5.0–5.5, 38° C., 1 h): 67%
- N,O— chelate ([3]; pH 5.0–5.5, 38° C., 5 h): 49%
- O,O— chelate ([3]; pH 5.0–5.5, 38° C., 5 h): 51%
- N,O— chelate ([3]; pH 5.0–5.5, 38° C., 20 h): 65%
- O,O— chelate ([3]; pH 5.0–5.5, 38° C., 20 h): 35%
- N,O— chelate ([3]; pH 6.0–6.5, 38° C., 1 h): 43%
- O,O— chelate ([3]; pH 6.0–6.5, 38° C., 1 h): 57%
- N,O— chelate ([3]; pH 6.0–6.5, 38° C., 5 h): 66%
- O,O— chelate ([3]; pH 6.0–6.5, 38° C., 5 h): 34%
- N,O— chelate ([3]; pH 6.0–6.5, 38° C., 20 h): 91%
- O,O— chelate ([3]; pH 6.0–6.5, 38° C., 20 h): 9%
- maximum tolerated dose (MTD) [4]: 80–100 mg PVkg

Compound: p(HPMA)-GFLG-Ama═Pt═(NH3)2, 45 kDa, O,O′—Pt
- IC50 [1]: 1 µM

Compound: N.N.[Cl][Pt][Cl] [Cisplatin, cis-diamminedichloroplatinum(II), reference compound]
- IC50 [1]: 0.5 µM

Compound: poly(HPMA)-GG-Ama=Pt(NH3)2 N,O Chelate [Example 17]
- Pt release in PBS ([2]; 3 hours): 1.4%
- Pt release in PBS ([2]; 24 hours): 4.6%

Compound: poly(HPMA)-GG-NH(CH2)3SO2Ama=Pt=DACH, Approx. 22 kDa [Example 25]
- Pt release in PBS ([2]; 3 hours): 1.0%
- Pt release in PBS ([2]; 24 hours): 1.93%

Compound: p(HPMA)-GFLG-Ama=Pt=DACH
- maximum tolerated dose [5]: 100 mg Pt/kg
- inhibition of tumor growth [6, 15]: tumor growth was substantially slowed and prolonged

Compound: N.N.O=C([O-])C1(C(=O)[O-])CCC1.[Pt+2] [Carboplatin, reference compound]
- IC50 [1]: 2.4 µM
- maximum tolerated dose [5]: 60 mg/kg
- maximum tolerated dose, equivalent in Pt [5]: 32 mg Pt/kg
- inhibition of tumor growth [6, 15]: modest inhibition of tumor growth
- inhibition of tumor growth [6, 16]: very little inhibition of tumor growth

Compound: poly(HPMA)-GG-Ama=Pt=DACH N,O-Chelate [Example 18]
- Pt release in PBS ([2]; 3 hours): 1.3%
- Pt release in PBS ([2]; 24 hours): 5.5%

Compound: poly(HPMA)-GFLG-NH(CH2)3SO2-Ama=Pt=DACH N,O-chelate [Example 29]
- maximum tolerated dose [5]: 75 mg Pt/kg
- inhibition of tumor growth [6, 16]: more marked inhibition in tumor growth
- Pt release in PBS ([2]; 3 hours): 2.12%
- Pt release in PBS ([2]; 24 hours): 4.54%

Compound: poly(HPMA)=GFLG-Ama=Pt=DACH, O,O′—Pt chelate [Example 5]
- IC50 [1]: 1 µM
- Pt release in PBS ([2]; 3 hours): 6.0%
- Pt release in PBS ([2]; 24 hours): 10.9%
